{
  "source": "patent US20150231232",
  "biological_target": "human IL-8 (UniProt P10145)",
  "sequence (P10145 28-99)": "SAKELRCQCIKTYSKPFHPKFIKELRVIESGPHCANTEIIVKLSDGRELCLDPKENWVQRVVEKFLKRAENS",
  "data": [
    {"substance": "SpyCEP expressed in the lumen of E. coli OMVs (OMVs containing SpyCEP)", "values": [
      {"measurement": "hydrolysis of IL-8 (18% SDS-PAGE with silver staining)", "value": "IL-8 was almost completely cleaved after 2 hours incubation with 30 µg OMVs containing SpyCEP"}
    ]}
  ]
}
